In patent US20140065163A1:
Where a chain is given by its changes, count along the chain named. In names and notes the source's numbering stands. Blank lines part the entries; values can stand above or below the binder they belong to.

Target: recombinant marmoset GM-CSF (Callithrix jacchus) (Callithrix jacchus)
Assay: cell-based or functional assay

recombinant marmoset GM-CSF (Callithrix jacchus) (Callithrix jacchus), sequence (chain, as listed by the source limits assumed, form in doubt): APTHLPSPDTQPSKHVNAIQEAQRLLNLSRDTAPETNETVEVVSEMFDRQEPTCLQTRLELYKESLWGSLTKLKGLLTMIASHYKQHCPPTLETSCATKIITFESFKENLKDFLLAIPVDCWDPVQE

B1: MSB0010603 4K21 (4K21 hVH S56V-T62S hVL N28I-H34S-N53R-H93Y) (antibody, V domains shown)
VH: EVQLVESGGGLVQPGGSLRLSCAASGFAFSAYDMSWVRQAPGKRLELVAYISSGGSVFYYPDSVKGRFTISRDNAKNSLYLQMNSLRAEDTAVYYCTRHLGFDYWGQGTLVTVSS
VL: DIVMTQSPLSLPVTPGEPASISCRSSQSLVNSIGNTYLSWYLQKPGQSPQLLIYKVSRRFSGVPDRFSGSGSGTDFTLKISRVEAEDVGVYYCSQSTYVPPTFGQGTKVEIK
IC50, inhibition of marmoset GM-CSF induced TF-1 proliferation (1.9 nM): 0.7 nM

B2: MSB0010599 4K21 (4K21 hVH S55R-T62S hVL N28I-H34S-N53R-H93Y) (antibody, V domains shown)
VH: B1 VH with S56R, V57S
VL: B1 VL
IC50, inhibition of marmoset GM-CSF induced TF-1 proliferation (1.9 nM): 0.9 nM

B3: MSB0010601 4K21 (4K21 hVH S55K-T62S hVL N28I-H34S-N53R-H93Y) (antibody, V domains shown)
VH: B1 VH with S56K, V57S
VL: B1 VL
IC50, inhibition of marmoset GM-CSF induced TF-1 proliferation (1.9 nM): 0.7 nM

B6: MSB0010595 4K21 (4K21 hVH S56V-T62S hVL S27eY-N28I-H34S-N53R-H93Y) (antibody, V domains shown)
VH: B1 VH
VL: B1 VL with S32Y
IC50, inhibition of marmoset GM-CSF induced TF-1 proliferation (1.9 nM): 1.5 nM

Now from value to binder:

IC50, inhibition of marmoset GM-CSF induced TF-1 proliferation (1.9 nM): 2 nM
B4: MSB0010600 4K21 (4K21 hVH S55R-T62S hVL S27eY-N28I-H34S-N53R-H93Y) (antibody, V domains shown)
VH: B1 VH with S56R, V57S
VL: B1 VL with S32Y

IC50, inhibition of marmoset GM-CSF induced TF-1 proliferation (1.9 nM): 1.3 nM
B5: MSB0010602 4K21 (4K21 hVH S55K-T62S hVL S27eY-N28I-H34S-N53R-H93Y) (antibody, V domains shown)
VH: B1 VH with S56K, V57S
VL: B1 VL with S32Y
